In the supplement of paper PMC10065799, “High-throughput profiling of sequence recognition by tyrosine kinases and SH2 domains using bacterial peptide display” (eLife, 2023):
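Note: 11-residue human phosphosite peptides and single-mutation variants displayed on the E. coli surface, counted by deep sequencing, each peptide's frequency after selection divided by its frequency in the unselected input library; frequency after pTyr selection over input frequency; kinase dosed for 20-30% of maximal phosphorylation in three min.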

What follows are sequences tested on c-Src (assay: phosphorylation enrichment, bacterial display (enrichment ratio); higher = better substrate or ligand; peptides without Tyr show the background).
LSDGPYSNSYE [EPOR_Y485_P488S] was tested, and the phosphorylation enrichment was 0.968.
In the case of MDQAEYQAKIR [DHX58_Y518], the phosphorylation enrichment is reported as 0.43.
SADIAYNFRHG [PAH_Y166_F161S_YF] showed a phosphorylation enrichment of 0.457.
EKQVAYCPSGK [ROS1_Y2323] showed a phosphorylation enrichment of 0.358.
EVGRVYLFLQP [ITGA2B_Y360] was tested, and the phosphorylation enrichment was 0.409.
DGTGHYLCNAC [GATA5_Y208] was tested, and the phosphorylation enrichment was 0.421.
In the case of IGKAGYTDKMV [ENO1_Y236_V240M], the phosphorylation enrichment is reported as 0.336.
Work on EFDRLYEEFTR [PIK3R1_Y467_YF] yielded a phosphorylation enrichment of 5.36.
Sequence EEKKKYYDTKI [CASP5_Y103] has a phosphorylation enrichment of 0.34.
In the case of DLSEVYKPCRK [CCDC93_Y176_R179C], the phosphorylation enrichment is reported as 0.405.
LCRYGYANTSE [SI_Y1233] showed a phosphorylation enrichment of 0.789.
Work on LHSEAYLKYNE [PBRM1_Y1610_I1614N] yielded a phosphorylation enrichment of 0.586.
In the case of IPVNGYQPVPA [ROR2_Y824_V819I], the phosphorylation enrichment is reported as 0.472.
Sequence KLPYPYDDPFS [GPX2_Y127] has a phosphorylation enrichment of 0.546.
Sequence AALRLYHVSDS [VIL1_Y256_K254R] has a phosphorylation enrichment of 0.451.
In the case of RFVTRYIFNRE [HLA-DQB1_Y62_YF], the phosphorylation enrichment is reported as 0.593.
Sequence LARDMDDKEFF [MET_Y1230_Y1230D_YF] has a phosphorylation enrichment of 0.498.
With RIDPDYVGRVR [IGSF9_Y81] the phosphorylation enrichment was 0.563.
KQLYAYKMLMA [TMC2_Y209] showed a phosphorylation enrichment of 0.383.
Sequence MEYLPYGSLRD [JAK2_Y934] has a phosphorylation enrichment of 4.9.
In the case of GKTQQYECKWY [BCR_Y751_D752E], the phosphorylation enrichment is reported as 0.522.
PIFEGYALPHA [ACTA1_Y171_YF] showed a phosphorylation enrichment of 0.562.
With SLIDGYFRLTE [JAK2_Y372_A377E_YF] the phosphorylation enrichment was 0.446.
WVFNHYRCIIW [BRCA2_Y2624_W2626C_YF] showed a phosphorylation enrichment of 0.497.
KVITDYYVDMK [MPP4_Y566] gave a phosphorylation enrichment of 0.597.
KWKQKYEESQS [MYH6_Y1462_E1457K] gave a phosphorylation enrichment of 0.38.
QEMMEYRHQIQ [DES_Y324] gave a phosphorylation enrichment of 1.12.
For QEGPEYWDRET [HLA-A_Y83_Q86R], the phosphorylation enrichment was 0.814.
In the case of SHSMRYFYTAV [HLA-C_Y31_D33Y], the phosphorylation enrichment is reported as 0.928.
EPYELYCEMGS [CBL_Y371_Q367P] showed a phosphorylation enrichment of 4.82.
For CTLLPYFSAPV [DGKE_Y269_R273P_YF], the phosphorylation enrichment was 0.569.
SQSKGYRPKLF [SIPA1L3_Y1376_G1371S_YF] showed a phosphorylation enrichment of 0.435.
IGGHAYGDQFR [IDH1_Y135_R132G_YF] was tested, and the phosphorylation enrichment was 0.317.

These sequences were tested against EPHB1 (UniProt P54762) in the same assay as above.
EPHB1, sequence (P54762 whole entry, looked up): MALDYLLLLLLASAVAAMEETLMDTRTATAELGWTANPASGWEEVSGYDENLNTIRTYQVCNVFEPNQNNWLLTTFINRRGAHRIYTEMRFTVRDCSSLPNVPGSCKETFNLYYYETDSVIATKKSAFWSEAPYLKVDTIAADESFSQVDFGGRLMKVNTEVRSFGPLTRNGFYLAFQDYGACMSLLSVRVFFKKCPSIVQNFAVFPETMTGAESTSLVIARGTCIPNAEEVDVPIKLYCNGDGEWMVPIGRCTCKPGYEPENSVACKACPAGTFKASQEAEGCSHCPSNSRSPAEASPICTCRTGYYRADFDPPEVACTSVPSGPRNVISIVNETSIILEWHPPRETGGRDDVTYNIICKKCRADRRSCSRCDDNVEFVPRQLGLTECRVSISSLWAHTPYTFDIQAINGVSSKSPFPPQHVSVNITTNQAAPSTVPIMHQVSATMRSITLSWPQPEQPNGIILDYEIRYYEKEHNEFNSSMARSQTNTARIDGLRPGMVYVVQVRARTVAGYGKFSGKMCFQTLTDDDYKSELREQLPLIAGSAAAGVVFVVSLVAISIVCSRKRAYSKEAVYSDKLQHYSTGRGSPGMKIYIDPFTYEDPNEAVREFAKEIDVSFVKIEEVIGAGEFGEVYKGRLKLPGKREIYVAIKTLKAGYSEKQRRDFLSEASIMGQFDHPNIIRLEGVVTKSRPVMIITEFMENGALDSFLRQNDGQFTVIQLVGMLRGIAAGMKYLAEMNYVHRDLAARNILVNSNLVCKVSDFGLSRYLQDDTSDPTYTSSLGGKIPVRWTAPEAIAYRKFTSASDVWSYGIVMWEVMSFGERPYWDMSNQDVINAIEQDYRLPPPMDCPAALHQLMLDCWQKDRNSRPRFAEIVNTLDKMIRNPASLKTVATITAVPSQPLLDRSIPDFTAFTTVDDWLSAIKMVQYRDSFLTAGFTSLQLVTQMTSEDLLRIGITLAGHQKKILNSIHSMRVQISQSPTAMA
With LSDGPYSNSYE [EPOR_Y485_P488S] the phosphorylation enrichment was 0.944.
Sequence MDQAEYQAKIR [DHX58_Y518] has a phosphorylation enrichment of 0.299.
SADIAYNFRHG [PAH_Y166_F161S_YF] showed a phosphorylation enrichment of 0.447.
EKQVAYCPSGK [ROS1_Y2323] showed a phosphorylation enrichment of 0.413.
EVGRVYLFLQP [ITGA2B_Y360] showed a phosphorylation enrichment of 0.838.
Sequence DGTGHYLCNAC [GATA5_Y208] has a phosphorylation enrichment of 0.61.
Work on IGKAGYTDKMV [ENO1_Y236_V240M] yielded a phosphorylation enrichment of 0.445.
Sequence EFDRLYEEFTR [PIK3R1_Y467_YF] has a phosphorylation enrichment of 3.46.
With EEKKKYYDTKI [CASP5_Y103] the phosphorylation enrichment was 0.442.
DLSEVYKPCRK [CCDC93_Y176_R179C] showed a phosphorylation enrichment of 0.483.
In the case of LCRYGYANTSE [SI_Y1233], the phosphorylation enrichment is reported as 0.78.
Work on LHSEAYLKYNE [PBRM1_Y1610_I1614N] yielded a phosphorylation enrichment of 0.393.
For IPVNGYQPVPA [ROR2_Y824_V819I], the phosphorylation enrichment was 0.385.
KLPYPYDDPFS [GPX2_Y127] was tested, and the phosphorylation enrichment was 0.458.
For AALRLYHVSDS [VIL1_Y256_K254R], the phosphorylation enrichment was 0.617.
Sequence RFVTRYIFNRE [HLA-DQB1_Y62_YF] has a phosphorylation enrichment of 0.536.
LARDMDDKEFF [MET_Y1230_Y1230D_YF] was tested, and the phosphorylation enrichment was 0.451.
RIDPDYVGRVR [IGSF9_Y81] gave a phosphorylation enrichment of 0.534.
With KQLYAYKMLMA [TMC2_Y209] the phosphorylation enrichment was 0.62.
For MEYLPYGSLRD [JAK2_Y934], the phosphorylation enrichment was 2.63.
GKTQQYECKWY [BCR_Y751_D752E] was tested, and the phosphorylation enrichment was 0.507.
PIFEGYALPHA [ACTA1_Y171_YF] showed a phosphorylation enrichment of 0.546.
SLIDGYFRLTE [JAK2_Y372_A377E_YF] gave a phosphorylation enrichment of 0.571.
Work on WVFNHYRCIIW [BRCA2_Y2624_W2626C_YF] yielded a phosphorylation enrichment of 0.885.
KVITDYYVDMK [MPP4_Y566] gave a phosphorylation enrichment of 1.71.
Sequence KWKQKYEESQS [MYH6_Y1462_E1457K] has a phosphorylation enrichment of 0.508.
QEMMEYRHQIQ [DES_Y324] gave a phosphorylation enrichment of 0.93.
In the case of QEGPEYWDRET [HLA-A_Y83_Q86R], the phosphorylation enrichment is reported as 1.16.
Sequence SHSMRYFYTAV [HLA-C_Y31_D33Y] has a phosphorylation enrichment of 0.71.
Work on EPYELYCEMGS [CBL_Y371_Q367P] yielded a phosphorylation enrichment of 5.73.
CTLLPYFSAPV [DGKE_Y269_R273P_YF] gave a phosphorylation enrichment of 0.66.
SQSKGYRPKLF [SIPA1L3_Y1376_G1371S_YF] showed a phosphorylation enrichment of 0.415.
In the case of IGGHAYGDQFR [IDH1_Y135_R132G_YF], the phosphorylation enrichment is reported as 0.3.
